Patent publication US20230071609A1 (Genentech, published 2023)

Legend:
[1] = molecular target: T1, circulating APOL1 in normal human serum (human, UniProt O14791 28-398); test: cell-based or functional assay
T1 sequence (looked up): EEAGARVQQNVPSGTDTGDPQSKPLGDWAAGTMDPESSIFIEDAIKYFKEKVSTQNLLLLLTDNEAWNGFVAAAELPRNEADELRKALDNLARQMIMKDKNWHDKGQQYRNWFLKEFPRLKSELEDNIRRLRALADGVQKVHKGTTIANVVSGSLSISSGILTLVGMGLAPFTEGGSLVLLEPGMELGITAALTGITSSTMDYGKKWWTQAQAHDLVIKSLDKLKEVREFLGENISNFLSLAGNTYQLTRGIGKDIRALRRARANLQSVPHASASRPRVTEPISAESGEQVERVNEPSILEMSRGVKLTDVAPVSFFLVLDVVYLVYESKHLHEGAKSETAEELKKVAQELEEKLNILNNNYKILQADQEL

[2] = molecular target: T2, gD-SRA-ID-GPI (construct e) (human, UniProt O14791 305-398, C-terminal GPI anchor); test: flow cytometry, live CHO cells; 3.3A8 is the representative for the C-terminus of MAD
T2 sequence: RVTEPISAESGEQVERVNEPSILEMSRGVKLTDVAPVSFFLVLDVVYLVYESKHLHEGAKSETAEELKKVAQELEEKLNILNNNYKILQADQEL
Experimental: (§1) Stably transfected live (not fixed or permeabilized) CHO cells expressing the gD-iAPOL1-GPI constructs indicated in FIGS. 1A-1E after induction with 5 μg/ml dox for 48 h, showing differential antibody binding at 5 μg/ml. […] White histograms are Alexa488 anti-mouse or anti-rabbit secondaries only; grey histograms are the anti-APOL1 signals. A representative histogram for each category is shown: 3.7D6 for PFD; 3.3A8 for C-terminus of MAD, 3.5H9 for N-terminus of MAD; 3.1C1 for SRA-ID; 3.2D4 for multi-domain; 3.3F7 for conformational and 3.5B10 for FACS-negative (FACS-ve). The prefix 3 in the name of the antibodies denotes murine monoclonals from Method #3 (as shown in Example 1 below); other antibodies (not illustrated here) starting with the number 4 are murine monoclonals derived from mice additionally boosted with SRA-ID protein; and prefix 5-named antibodies are rabbit monoclonals from Method #5 (Table 2A; and Example 2). […] The Sigma polyclonal (HPA018885, raised to aa 263-387) and the Epitomics rabbit monoclonal (EPR2907(2), raised to an undisclosed peptide) are SRA-ID binders. […]
(§2) Cells were harvested with 5 mM EDTA in PBS, washed once with growth media and twice with PBS. […] Signals were read in a FACSCalibur3 (Becton Dickinson), with the exception of FIG. 8A and FIG. 14, which used a FACSCelesta, and data was analyzed using FlowJo v8.4.5.

[3] = molecular target: T3, untagged APOL1-G0, KIK variant, transiently expressed (COS cells) (human, UniProt O14791 29-398); test: immunofluorescence on transfected COS cells, 1 µg/ml; grade
T3 construct: Origene SC109941 clone with E150K, M228I, R255K
T3 chain: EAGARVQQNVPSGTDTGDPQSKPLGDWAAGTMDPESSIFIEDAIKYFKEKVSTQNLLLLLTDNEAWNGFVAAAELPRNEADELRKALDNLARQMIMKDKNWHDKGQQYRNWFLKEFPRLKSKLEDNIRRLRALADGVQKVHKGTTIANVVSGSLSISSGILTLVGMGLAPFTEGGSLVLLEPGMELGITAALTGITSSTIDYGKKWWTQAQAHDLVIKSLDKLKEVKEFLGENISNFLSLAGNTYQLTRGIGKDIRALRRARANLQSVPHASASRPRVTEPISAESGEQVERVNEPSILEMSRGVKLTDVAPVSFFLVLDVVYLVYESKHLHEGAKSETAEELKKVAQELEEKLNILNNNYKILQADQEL

[4] = molecular target: T4, APOL6-myc-FLAG (human, UniProt Q9BWW8 1-343); test: immunofluorescence on transfected COS cells; grade
T4 construct: whole, on cells; In fixed, permeabilized transfected COS cells; untagged APOL6 in the western blots; not shown: C-terminal myc-FLAG tag
T4 sequence (looked up): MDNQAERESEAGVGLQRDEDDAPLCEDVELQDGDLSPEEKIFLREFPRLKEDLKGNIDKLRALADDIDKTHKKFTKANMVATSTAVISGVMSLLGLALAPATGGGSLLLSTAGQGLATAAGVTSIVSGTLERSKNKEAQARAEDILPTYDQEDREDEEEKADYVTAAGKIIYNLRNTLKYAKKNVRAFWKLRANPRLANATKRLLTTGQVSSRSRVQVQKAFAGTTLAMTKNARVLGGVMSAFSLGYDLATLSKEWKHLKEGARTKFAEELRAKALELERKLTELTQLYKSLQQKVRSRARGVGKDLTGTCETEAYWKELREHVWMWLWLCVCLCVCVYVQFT
Description: COS cells were transfected as in FIG. 31A except APOL1 and APOL2 were also C-terminally myc-FLAG tagged. Overlays of APOL with epitope tags: either mouse anti-FLAG-M2 or mouse anti-myc 9E10 for anti-APOL1 rabmabs; or rabbit anti-Myc 71D10 in conjunction with mouse anti-APOL1. Signals indicate the two antibodies overlap (i.e. anti-APOL1 cross-reacts with that APOL); signals (epitope tag only) indicate no cross-reactivity. Alexa647 anti-rabbit or mouse were used for the tags to rule out the possibility that any colocalization was a bleed-through artifact. Sparsely transfected areas were imaged to permit evaluation of background staining in adjacent untransfected cells—DAPI nuclear staining identifies both untransfected and transfected cell nuclei. […] Note that none of the antibodies cross-reacted with the more distantly related APOL6. *, APOL2-myc-FLAG is presumably misfolded, since it is not as cross-reactive as untagged APOL2 (compare FIG. 31A) with several antibodies. Commercial antibodies are Sigma HPA018885, Epitomics EPR2907 (2) (Epito) and Proteintech 11486-2-AP (Ptech).
Cells were plated on LabTekII (Nalge Nunc 154534) slides and fixed at 70-100% confluency. For mAb screening, cells were fixed/permeabilized for 5 min in −20° C. methanol (EMD MX0485-6). For all other experiments, cells were fixed in 3% paraformaldehyde in PBS (EMS 15710) for 20 mins at room temperature, quenched with 50 mM NH₄Cl in PBS for 10 mins, then permeabilized with 0.1% TX-100 in PBS for 4 mins or for 1h in saponin buffer [0.4% saponin (Sigma S7900), 1% bovine serum albumin (BSA; Sigma A2153), 2% fetal bovine serum (Seradigm) in PBS]. First antibodies (stored sterile at 4° C.) were applied for 1 h at room temperature, at 1 μg/ml for screening on transfected cells or at subsequently optimized concentrations for detecting endogenous APOL1. After 3×10 min washes in PBS (for Methanol or TX-100 protocols) or saponin buffer (saponin protocol), secondary antibodies were applied at 1.88 μg/ml for 1 h at room temperature, washed 3× and mounted under No. 1.5 coverslips in ProLong Gold with DAPI (4′,6-diamidino-2-phenylindole; Life Technologies P36931).

[5] = molecular target: T5, gD-MAD-SRA-ID-GPI (construct d) (human, UniProt O14791 238-398, C-terminal GPI anchor); test: flow cytometry, live CHO cells; conformational = only bound to full length APOL1, but not individual domains
T5 sequence: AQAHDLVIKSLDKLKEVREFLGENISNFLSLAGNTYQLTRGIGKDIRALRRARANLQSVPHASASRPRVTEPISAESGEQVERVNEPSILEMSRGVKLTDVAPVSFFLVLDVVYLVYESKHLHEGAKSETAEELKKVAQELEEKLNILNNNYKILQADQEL
Experimental: (§3) Stably transfected live (not fixed or permeabilized) CHO cells expressing the gD-iAPOL1-GPI constructs indicated in FIGS. 1A-1E after induction with 5 μg/ml dox for 48 h, showing differential antibody binding at 5 μg/ml. […] White histograms are Alexa488 anti-mouse or anti-rabbit secondaries only; grey histograms are the anti-APOL1 signals. A representative histogram for each category is shown: 3.7D6 for PFD; 3.3A8 for C-terminus of MAD, 3.5H9 for N-terminus of MAD; 3.1C1 for SRA-ID; 3.2D4 for multi-domain; 3.3F7 for conformational and 3.5B10 for FACS-negative (FACS-ve). The prefix 3 in the name of the antibodies denotes murine monoclonals from Method #3 (as shown in Example 1 below); other antibodies (not illustrated here) starting with the number 4 are murine monoclonals derived from mice additionally boosted with SRA-ID protein; and prefix 5-named antibodies are rabbit monoclonals from Method #5 (Table 2A; and Example 2). […] The Sigma polyclonal (HPA018885, raised to aa 263-387) and the Epitomics rabbit monoclonal (EPR2907(2), raised to an undisclosed peptide) are SRA-ID binders. Successful APOL1 surface expression of each construct was confirmed with the anti-gD epitope tag (gD-tag) antibody (to Herpes Simplex Virus glycoprotein D).
(§4) Cells were harvested with 5 mM EDTA in PBS, washed once with growth media and twice with PBS. Approximately 0.5×10⁶/m1 of cells resuspended in PBS were incubated with anti-APOL1 antibodies for 1 h on ice. Following two PBS washes, 2 μg/ml of Alexa488 anti-mouse or anti-rabbit (Invitrogen A11029 and A21206, respectively) was used for 1 h on ice for detection. Cells were washed twice in PBS and resuspended in PBS with 1 μg/ml propidium iodide. Signals were read in a FACSCalibur3 (Becton Dickinson), with the exception of FIG. 8A and FIG. 14, which used a FACSCelesta, and data was analyzed using FlowJo v8.4.5.

[6] = molecular target: T2, gD-SRA-ID-GPI (construct e); test: as above
Experimental: as §3, §4

[7] = molecular target: T6, gD-PFD-MAD-GPI (construct c) (human, UniProt O14791 61-305, C-terminal GPI anchor); test: as above
T6 sequence: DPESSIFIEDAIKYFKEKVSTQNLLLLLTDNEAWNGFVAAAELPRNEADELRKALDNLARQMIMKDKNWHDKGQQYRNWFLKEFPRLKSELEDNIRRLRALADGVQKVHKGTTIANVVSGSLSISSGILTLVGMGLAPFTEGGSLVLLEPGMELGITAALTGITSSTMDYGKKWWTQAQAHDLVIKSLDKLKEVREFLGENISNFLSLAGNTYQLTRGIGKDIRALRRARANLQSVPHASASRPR
Experimental: as §3, §4

[8] = molecular target: T7, gD-iAPOL1-GPI (construct b, aa 61-398) (human, UniProt O14791 61-398, C-terminal GPI anchor); test: flow cytometry, live CHO cells, 5 µg/ml; conformational = only bound to full length APOL1
T7 construct: Stably expressed on CHO cells under a doxycycline-inducible promoter; also called gD-APOL1-GPI; gD-APOL1-G0-GPI
T7 sequence: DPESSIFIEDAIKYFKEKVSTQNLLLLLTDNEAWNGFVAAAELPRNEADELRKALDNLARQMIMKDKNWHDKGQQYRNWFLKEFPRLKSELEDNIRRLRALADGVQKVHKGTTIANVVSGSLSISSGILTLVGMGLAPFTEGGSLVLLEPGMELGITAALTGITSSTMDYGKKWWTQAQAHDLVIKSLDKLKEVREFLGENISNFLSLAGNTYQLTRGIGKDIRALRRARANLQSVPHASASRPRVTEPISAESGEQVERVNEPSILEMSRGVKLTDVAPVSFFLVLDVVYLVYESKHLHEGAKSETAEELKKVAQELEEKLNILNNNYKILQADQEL
Experimental: as §1, §2

[9] = molecular target: T1, circulating APOL1 in normal human serum; test: immunoprecipitation from normal human serum with Dynabead-conjugated antibody
Experimental: FIGS. 17A-17C show immunoprecipitation of APOL1 from NHS with a different set of APOL1 antibodies. FIG. 17A show as in FIG. 5D that all the blocking antibodies could immunoprecipitate APOL1, except the conformational antibody 3.7F5 (SEQ ID NOS: 203-212), which is also a poor blocker.
Anti-APOL1 antibodies were conjugated to Dynabeads (ThermoFisher 14311D) as per the manufacturer's protocol. Briefly, 10 μg of each antibody was conjugated to 2 mg of Dynabeads overnight at 37° C. with rotation. Next day, unbound antibody was washed off and conjugated antibody was resuspended at a final concentration of 50 μg/ml. 2-5 μg of the conjugated antibody was incubated with 1 μl of undiluted human serum at 4° C. for 16 h in a total volume of 500 μl with PBS. Unbound serum was washed with 150 mM NaCl in PBS. Bound APOL1 was eluted with low pH glycine buffer (this was preferable to direct boiling to avoid elution of non-specifically bound proteins). Eluates were boiled in 5× sample buffer (Invitrogen 39000) and loaded on 4-12% Bis-Tris gels (Invitrogen NP03220). Immunoprecipitated APOL1 was detected by rabbit polyclonal APOL1 antibody (Proteintech 11486-2-AP, 1:1000) and ECL. APOA1 was detected with goat anti-APOA1 (Rockland 600-101-109), HPR was detected with 1 μg/ml rabbit anti-HPR (Millipore ABS 196) and ECL Prime. […]

B1: antibody 3.3A8 (antibody, V domains shown)
VH: QVQFQQSGAELVRPGASVKVTCKALGYTFSNYEIHWVRQPPVHGLEWIGAIHPGNGVTAYNQMFKGRATLAADKSSSTAYMELSSLTSEDSAVYYCTENFDYWGQGTALTVSS
VL: DVVVTQTPLSLPVSFGDQVSISCRSSQSLTNSYGITYLSWFLLKPGQSPQLLIYEISNRFSGVPDRFSGSGSGTDFTLKISTIKPEDLGVYFCLQGTHQPFTFGAGTKLEIKR
notes: Mouse mAb, cloned as murine IgG2a LALAPG; also called MAD antibody 3.3A8
IC50 of blocking of serum APOL1-mediated trypanolysis (Alamar Blue) [1]: 0.4 nM
binding result [2]: no binding (tested: 5 µg/ml)
binding result [3]: binds
binding result [4]: no binding (tested: 1 µg/ml)

B2: antibody 3.3F7 (antibody, V domains shown)
VH: QVQLKQSGPSLVQPSQSLSITCTVSGFSLTTYGVHWVRQSPGKGLEWLGVIWRGGNTDYNAAFMSRLSITKDNSQSQVFFKMNSLQADDTAIYYCAKSSYGYHYTMDYWGHGTSVTVSS
VL: DIVVTQSHRFMSTSVGDRVIITCKASQNVGTAVAWYQQKPGQSPKLLIYWASTRHTGVPDRFTGSGSGTDFTLTISNVQSEDLADYFCQRYNNFPFTFGSGTKLEIKR
notes: Mouse mAb, cloned as murine IgG2a LALAPG
binding result [5]: no binding (tested: 5 µg/ml)
binding result [6]: no binding (tested: 5 µg/ml)
binding result [7]: no binding (tested: 5 µg/ml)
binding result [8]: binds

B3: antibody 3.7F5 (antibody, V domains shown)
VH: EIHLQQSGPEVVQPGASLKVSCKASDYSFTDYNVFWVKQSHGKSLEWIAYIDPYNGATSYNQKFKDKATLTVDKSSSTAFMYLNSLTSEDSAVYYCARGTVRAFFDSWGQGTTLTVSS
VL: DIVMSQSPSSLVVSVGEKVSLSCKSSQSLLYRNDQINYLAWYQQKPGQSPKLLIFWASTRESGVPVRFTGSGSGTDFTLNINTVKAEDLAVYYCQQYYSYPPTFGTGTKLEIKR
notes: Mouse mAb, cloned as murine IgG2a LALAPG; also called conformational antibody 3.7F5
binding result [9]: no binding
